This note sets out measurements from PMC4869123 (Scientific Reports, 2016).

Broadly, the IC50 is the concentration that gives 50% inhibition.

*1 amine or outer side, *2 acyl side, *3 side chain or, on linkers, in order; H or OH if unused. Where a SMILES comes first, the peptide text is derived from it. Bridges are numbered along the chain shown (N, C = ends). Roman numbers before positions name the chains, in order. Where no end group is shown, it is not given here. [ ]: non-standard residue; d: D form. CO(CH2CH2O)5CH2CH2CO = O=C(CCOCCOCCOCCOCCOCCC(=O)[*:2])[*:1]; Lys(Me2) = CN(C)CCCC[C@H](N)C(=O)O

The target in one assay is T1, human IL-17A (Homo sapiens, UniProt Q16552).
T1 construct: host or cells: added to BJ human fibroblasts (ATCC CRL2522)
Description: BJ human fibroblast cell assay, IL-17A stimulated GRO-α production. In kind it is cell-based. The conditions noted are these: BJ human fibroblast cells, 1 ng/ml human IL-17A. From the text:
For inhibitor screen, human BJ fibroblast cells (ATCC CRL2522) (American Type Culture Collection, VA) were used. For mouse cell based assay MLE-12 mouse epithelial cells (ATCC CRL2110) were used. Both cell lines were maintained in ATCC recommended media.

Assay [1] deals with T2, biotinylated recombinant human IL-17A (rhIL-17, R&D Systems #317-ILB) (human, UniProt Q16552 24-155, biotinylated).
T2 construct: IL-17A, human, recombinant; also called Biotinylated IL-17A; source: bought: R&D Systems
The conditions noted are these: both partners purified.

T2 sequence (Q16552 24-155): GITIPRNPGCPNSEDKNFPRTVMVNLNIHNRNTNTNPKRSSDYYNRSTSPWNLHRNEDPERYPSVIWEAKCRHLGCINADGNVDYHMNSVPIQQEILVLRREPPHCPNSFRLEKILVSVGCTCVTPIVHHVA
T1 sequence (Q16552 24-155): as above

As to `CC[C@H](C)[C@H](NC(C)=O)C(=O)N[C@H](C(=O)N[C@H](C(=O)N[C@@H](CCCCNC(=O)CCOCCOCCOCCOCCOCCC(=O)NCCCC[C@H](NC(=O)[C@@H](NC(=O)[C@@H](NC(=O)[C@@H](NC(C)=O)[C@@H](C)CC)[C@@H](C)O)C(C)C)C(=O)N[C@H](C(=O)N1CCC[C@H]1C(=O)N[C@@H](C)C(=O)N[C@@H](CC(=O)O)C(=O)N[C@@H](CC(C)C)C(=O)N[C@@H](Cc1c[nH]c2ccccc12)C(=O)N[C@@H](CC(=O)O)C(=O)N[C@@H](Cc1c[nH]c2ccccc12)C(=O)N[C@H](C(=O)N[C@@H](CC(N)=O)C(=O)N[C@@H](CCCCN(C)C)C(N)=O)[C@@H](C)CC)[C@@H](C)CC)C(=O)N[C@H](C(=O)N1CCC[C@H]1C(=O)N[C@@H](C)C(=O)N[C@@H](CC(=O)O)C(=O)N[C@@H](CC(C)C)C(=O)N[C@@H](Cc1c[nH]c2ccccc12)C(=O)N[C@@H](CC(=O)O)C(=O)N[C@@H](Cc1c[nH]c2ccccc12)C(=O)N[C@H](C(=O)N[C@@H](CC(N)=O)C(=O)N[C@@H](CCCCN(C)C)C(N)=O)[C@@H](C)CC)[C@@H](C)CC)C(C)C)[C@@H](C)O` [Compound 40] (I: Ac-ITVKIPADLWDWIN[Lys(Me2)]-NH2 / II: Ac-ITVKIPADLWDWIN[Lys(Me2)]-NH2; linker I:4-II:4 via CO(CH2CH2O)5CH2CH2CO), half-maximal inhibition on human IL-17A (IC50) required 3370 nM. On the same count and under the same terms, then `CC[C@H](C)[C@H](NC(C)=O)C(=O)N[C@@H](Cc1c[nH]cn1)C(=O)N[C@H](C(=O)N[C@H](C(=O)N[C@H](C(=O)N1CCC[C@H]1C(=O)N[C@@H](C)C(=O)N[C@@H](CC(=O)O)C(=O)N[C@@H](CC(C)C)C(=O)N[C@@H](Cc1c[nH]c2ccccc12)C(=O)N[C@@H](CC(=O)O)C(=O)N[C@@H](Cc1c[nH]c2ccccc12)C(=O)N[C@H](C(=O)N[C@@H](CC(N)=O)C(N)=O)[C@@H](C)CC)[C@@H](C)CC)[C@@H](C)O)C(C)C` [Compound 35], with 12 nM.

B1: peptide 2 (peptide)
peptide: Ac-IVVTMPADLWDWIRA
modifications: not fully specified (C-terminus)
notes: analogue of peptide 1 with lysine to arginine at position 14; parent of the alanine scan; made on Rink resin; a C-terminal amide is surmised; source: synthetic peptide
Regarding B1, the IC50 in assay [1] is 80 nM.

B2: peptide 3 (peptide)
peptide: Ac-IVVTMPADLWDWIRK
modifications: not fully specified (C-terminus)
notes: analogue of peptide 2, K at position 15; made on Rink resin; a C-terminal amide is surmised; source: synthetic peptide
Regarding B2, in assay [1], the IC50 is 66 nM.

B3: peptide 13 (peptide)
peptide: Ac-IVVTAPADLWDWIRA
modifications: not fully specified (C-terminus)
notes: analogue of peptide 2, A at position 5; made on Rink resin; a C-terminal amide is surmised; source: synthetic peptide
On to B3, for which, in assay [1], the IC50 worked out at 11 nM.

B4: peptide 27 (peptide)
peptide: Ac-IVVTMPADLWDWIMA
modifications: not fully specified (C-terminus)
notes: analogue of peptide 2, M at position 14; made on Rink resin; a C-terminal amide is surmised; source: synthetic peptide
On to B4, for which the IC50 in assay [1] worked out at 31 nM.

B5: peptide 6 (peptide)
peptide: Ac-IVVTMPADLWDAIRA
notes: analogue of peptide 2, A at position 12; made on Rink resin; a C-terminal amide is surmised; also called W12A variant; source: synthetic peptide
Regarding B5, the IC50 in assay [1] worked out at 7450 nM.

B6: peptide 5 (peptide)
peptide: Ac-IVVTMPADLWDWARA
modifications: not fully specified (C-terminus)
notes: analogue of peptide 2, A at position 13; made on Rink resin; a C-terminal amide is surmised; source: synthetic peptide
On to B6, for which the IC50 in assay [1] is 402 nM.

B7: peptide 28 (peptide)
peptide: Ac-IVVTMPADLWDWINA
modifications: not fully specified (C-terminus)
notes: analogue of peptide 2, N at position 14; made on Rink resin; a C-terminal amide is surmised; source: synthetic peptide
As to B7, the IC50 in assay [1] amounted to 26 nM.

B8: peptide 10 (peptide)
peptide: Ac-IVVTMPAALWDWIRA
modifications: not fully specified (C-terminus)
notes: analogue of peptide 2, A at position 8; made on Rink resin; a C-terminal amide is surmised; source: synthetic peptide
Consider B8, for which the IC50 in assay [1] amounted to 4020 nM.

B9: peptide 23 (peptide)
peptide: Ac-IYVTMPADLWDWIRA
modifications: not fully specified (C-terminus)
notes: analogue of peptide 2, Y at position 2; made on Rink resin; a C-terminal amide is surmised; source: synthetic peptide
Regarding B9, the IC50 in assay [1] stood at 64 nM.

B10: peptide 21 (peptide)
peptide: Ac-ITVTMPADLWDWIRA
modifications: not fully specified (C-terminus)
notes: analogue of peptide 2, T at position 2; made on Rink resin; a C-terminal amide is surmised; also called V2T; source: synthetic peptide
Regarding B10, the IC50 in assay [1] was found to be 31 nM.

B11: peptide 19 (peptide)
peptide: Ac-IQVTMPADLWDWIRA
modifications: not fully specified (C-terminus)
notes: analogue of peptide 2, Q at position 2; made on Rink resin; a C-terminal amide is surmised; source: synthetic peptide
With B11, the IC50 in assay [1] is 71 nM.

B12: peptide 22 (peptide)
peptide: Ac-IWVTMPADLWDWIRA
modifications: not fully specified (C-terminus)
notes: analogue of peptide 2, W at position 2; made on Rink resin; a C-terminal amide is surmised; source: synthetic peptide
B12: the IC50 in assay [1] is 522 nM.

B13: peptide 4 (peptide)
peptide: Ac-IVVTMPADLWDWIAA
modifications: not fully specified (C-terminus)
notes: analogue of peptide 2, A at position 14; made on Rink resin; a C-terminal amide is surmised; source: synthetic peptide
Consider B13, for which the IC50 in assay [1] came out at 172 nM.

B14: peptide 18 (peptide)
peptide: Ac-IHVTMPADLWDWIRA
modifications: not fully specified (C-terminus)
notes: analogue of peptide 2, H at position 2; made on Rink resin; a C-terminal amide is surmised; also called V2H; source: synthetic peptide
Consider B14, for which, in assay [1], the IC50 came to 45 nM.

B15: peptide 20 (peptide)
peptide: Ac-IRVTMPADLWDWIRA
modifications: not fully specified (C-terminus)
notes: analogue of peptide 2, R at position 2; made on Rink resin; a C-terminal amide is surmised; source: synthetic peptide
Take B15: the IC50 in assay [1] was found to be 117 nM.

B16: peptide 14 (peptide)
peptide: Ac-IVVAMPADLWDWIRA
modifications: not fully specified (C-terminus)
notes: analogue of peptide 2, A at position 4; made on Rink resin; a C-terminal amide is surmised; source: synthetic peptide
On to B16, for which, in assay [1], the IC50 is 195 nM.

B17: peptide 16 (peptide)
peptide: Ac-IAVTMPADLWDWIRA
modifications: not fully specified (C-terminus)
notes: analogue of peptide 2, A at position 2; made on Rink resin; a C-terminal amide is surmised; source: synthetic peptide
For B17, the IC50 in assay [1] stood at 149 nM.

B18: peptide 9 (peptide)
peptide: Ac-IVVTMPADAWDWIRA
modifications: not fully specified (C-terminus)
notes: analogue of peptide 2, A at position 9; made on Rink resin; a C-terminal amide is surmised; source: synthetic peptide
As to B18, the IC50 in assay [1] turned out to be 640 nM.

B19: peptide 17 (peptide)
peptide: Ac-AVVTMPADLWDWIRA
modifications: not fully specified (C-terminus)
notes: analogue of peptide 2, A at position 1; made on Rink resin; a C-terminal amide is surmised; source: synthetic peptide
B19: the IC50 in assay [1] is 167 nM.

B20: peptide 15 (peptide)
peptide: Ac-IVATMPADLWDWIRA
modifications: not fully specified (C-terminus)
notes: analogue of peptide 2, A at position 3; made on Rink resin; a C-terminal amide is surmised; source: synthetic peptide
For B20, the IC50 in assay [1] worked out at 5720 nM.

B21: peptide 12 (peptide)
peptide: Ac-IVVTMAADLWDWIRA
modifications: not fully specified (C-terminus)
notes: analogue of peptide 2, A at position 6; made on Rink resin; a C-terminal amide is surmised; source: synthetic peptide
In the case of B21, the IC50 in assay [1] was 2650 nM.

B22: peptide 7 (peptide)
peptide: Ac-IVVTMPADLWAWIRA
modifications: not fully specified (C-terminus)
notes: analogue of peptide 2, A at position 11; made on Rink resin; a C-terminal amide is surmised; source: synthetic peptide
Turning to B22, the IC50 in assay [1] is 474 nM.

B23: peptide 8 (peptide)
peptide: Ac-IVVTMPADLADWIRA
modifications: not fully specified (C-terminus)
notes: analogue of peptide 2, A at position 10; made on Rink resin; a C-terminal amide is surmised; source: synthetic peptide
On to B23, for which the IC50 in assay [1] was determined as 524 nM.
